Holding throughout (experiment): IEDB peptide-MHC binding, purified MHC/competitive/radioactivity; filed as Kd, often an IC50 or EC50 that approximates it; ≥ and ≤ were set here for values at or beyond the usual limits of such assays
Test [1] addresses HLA-A*02:06.
Test [2] addresses HLA-A*02:03.
The target of test [3] is HLA-A*02:02.
[4] abbreviates: source organism: Vaccinia virus WR.
[5] abbreviates: source organism: SARS coronavirus Tor2.
Setting [6] is: source organism: Dengue virus 2 Jamaica/1409/1983.
[7] abbreviates: source organism: Lymphocytic choriomeningitis virus (strain Armstrong).
[8] abbreviates: source organism: Mammarenavirus brazilense.

A value given as a limit tells only on which side of the number the result lay.

By Kd is commonly meant the constant that tells how readily two partners part at equilibrium. With GLKIEEIEKV, the Kd in test [1] (setting [4]) was determined as 198 nM; in test [2] (setting [4]) it was 6.61 nM; in test [3] (setting [4]), 14.9 nM.

For LLVTLAILTA, the dissociation constant (Kd) in test [1] (setting [5]) is 32.2 nM; in test [2] (setting [5]), 42.9 nM; in test [3] (setting [5]), 4.39 nM.

As for VTLNRIKIA, the Kd was determined as 625 nM in test [1] (setting [4]), 407 nM in test [2] (setting [4]) and 13300 nM in test [3] (setting [4]).

Regarding ILASFSAST, the values for the Kd in test [1] (setting [5]), in test [2] (setting [5]) and in test [3] (setting [5]) were 457 nM, 5.27 nM and 1.62 nM, respectively.

Turning to VMPEKRNVVV, the Kd in test [1] (setting [4]) is at least 27700 nM; in test [2] (setting [4]) it was 299 nM; in test [3] (setting [4]), 3540 nM.

Take RLLKNMKQCT: the Kd in test [1] (setting [4]) is 11900 nM; in test [2] (setting [4]), 3140 nM; in test [3] (setting [4]) it was at least 46800 nM.

SLVSKHWELT: the Kd in test [1] (setting [4]) is 2680 nM; in test [2] (setting [4]), 34.6 nM; in test [3] (setting [4]), 409 nM.

For the sequence VIVPDIKLDA, the Kd is 883 nM in test [1] (setting [4]), at least 21400 nM in test [2] (setting [4]) and at least 33500 nM in test [3] (setting [4]).

As for DLNRMPTDML, the Kd in test [1] (setting [4]) is at least 47500 nM; in test [2] (setting [4]), 2190 nM; in test [3] (setting [4]) it was 1250 nM.

Take YLSSRAKLAL: in test [2] (source organism: Dengue virus 4 Philippines/H241/1956), the Kd turned out to be 28.1 nM.

Regarding SQIFNIISYI, the dissociation constant Kd turned out to be 23.5 nM in test [1] (setting [4]), 181 nM in test [2] (setting [4]) and 61.7 nM in test [3] (setting [4]).

With PLNEAIMAV, the Kd in test [2] (setting [6]) turned out to be 18.3 nM.

Regarding SLCPTKKLV, the Kd in test [1] (setting [4]) is 11900 nM; in test [2] (setting [4]), 2660 nM; in test [3] (setting [4]), 3160 nM.

Regarding KCMSAALKNL, the values for the Kd in test [1] (setting [7]), in test [2] (setting [7]) and in test [3] (setting [7]) were 14000 nM, 192 nM and 57.9 nM, respectively.

As to YQNEVTPEYI, the Kd in test [1] (setting [4]) was 2.59 nM; in test [2] (setting [4]), 0.209 nM; in test [3] (setting [4]), 2.74 nM.

For the sequence RLAANAICSA, in test [2] (setting [6]), the Kd stood at 127 nM.

In the case of DQDTMLFASA, the Kd in test [1] (setting [4]) came to 1720 nM; in test [2] (setting [4]), 663 nM; in test [3] (setting [4]) it was 891 nM.

As to LSYSQTMLL, the Kd in test [1] (setting [7]) was 3720 nM; in test [2] (setting [7]) it was 11300 nM; in test [3] (setting [7]), 2110 nM.

On to FVVNGHTCM, for which the results for the Kd in test [1] (setting [4]), in test [2] (setting [4]) and in test [3] (setting [4]) were 1810 nM, 5900 nM and 6640 nM, respectively.

Take VLTSVDIET: the Kd in test [1] (setting [4]) was 13.7 nM; in test [2] (setting [4]) it was 11300 nM; in test [3] (setting [4]) it was 382 nM.

With ALVSGTATA, the Kd is 269 nM in test [1] (setting [5]), 8.1 nM in test [2] (setting [5]) and 4.63 nM in test [3] (setting [5]).

For the sequence TIGTIAGGV, the Kd was determined as 1140 nM in test [1] (setting [4]), 17.4 nM in test [2] (setting [4]) and 298 nM in test [3] (setting [4]).

For the sequence IVILFIMFM, the Kd in test [1] (setting [4]) stood at 741 nM; in test [2] (setting [4]), 1680 nM; in test [3] (setting [4]), 1860 nM.

With RSASGGVYL, the Kd in test [1] (setting [8]) stood at 13600 nM; in test [2] (setting [8]), 14500 nM; in test [3] (setting [8]), 278 nM.

Regarding LVFNSISARA, the Kd is 702 nM in test [1] (setting [4]), 254 nM in test [2] (setting [4]) and 1270 nM in test [3] (setting [4]).

Regarding WLKDSAIMV, the Kd in test [1] (setting [4]) is 2280 nM; in test [2] (setting [4]) it was 27.9 nM; in test [3] (setting [4]) it was 191 nM.

Regarding NLEELTTVFI, the figures for the Kd in test [1] (setting [4]), in test [2] (setting [4]) and in test [3] (setting [4]) were 12300 nM, 6500 nM and 418 nM, respectively.

For SQVNPITLTA, the Kd in test [1] (setting [6]) is 129 nM.

As for CVRLNNPVIL, the Kd in test [1] (setting [4]) was at least 45100 nM; in test [2] (setting [4]), 5400 nM; in test [3] (setting [4]) it was 8560 nM.

Take TTTFITVLT: the figures for the Kd in test [1] (setting [4]), in test [2] (setting [4]) and in test [3] (setting [4]) were 1090 nM, 8590 nM and 2460 nM, respectively.

Turning to VTYNIKPVIV, the Kd in test [1] (setting [4]) is 358 nM; in test [2] (setting [4]), 116 nM; in test [3] (setting [4]) it was 4920 nM.

TLFYCDERDA: the Kd in test [1] (setting [4]) turned out to be 19500 nM; in test [2] (setting [4]), 2150 nM; in test [3] (setting [4]) it was 271 nM.

With ETFPNVHEHI, the Kd was at least 69800 nM in test [1] (setting [4]), 6620 nM in test [2] (setting [4]) and 8020 nM in test [3] (setting [4]).

Consider SIFVSTMPV, for which the Kd in test [1] (setting [4]) came out at 81.9 nM; in test [2] (setting [4]), 6.58 nM; in test [3] (setting [4]), 37.5 nM.

For YLSDSDNIKI, the values for the Kd in test [1] (setting [4]), in test [2] (setting [4]) and in test [3] (setting [4]) were 906 nM, 109 nM and 16.3 nM, respectively.

Consider YASLTTIGTI, for which the Kd in test [1] (setting [4]) is 83.6 nM; in test [2] (setting [4]), 398 nM; in test [3] (setting [4]), 6290 nM.

For the sequence DTEFINKFL, the Kd is at least 77100 nM in test [1] (setting [4]), at least 42700 nM in test [2] (setting [4]) and 7420 nM in test [3] (setting [4]).

(Values after the Immune Epitope Database (IEDB).)
